The target of the assay is AGT of all performed ITC measurements (wild type and AGT mutants of Table S1). Put plainly: ITC; 25–46 µM AGT as sample in the cell, 250–460 µM Pex5p(C) as titration ligand, 27 injections of 10 µl; 25°C; 100 mM HEPES pH 7.5, 150 mM NaCl, 2 mM ß-mercaptoethanol. For orientation: ITC needs no label: the signal is the heat of the interaction.

What is called stoichiometry N is a count of units in the complex or per binding partner.

As for “C-terminal cargo-binding segment of human Pex5p (residues 315-639) (from UniProt P50542 315-639) (domain or fragment)”, the stoichiometry N came out at 1.02.
